Measured values published in US20050171004A1, “Use of cardiotrophin-1 to promote wound healing and counteract overt fibrosis” (priority 2003, published 2005).

Legend:
cardiac fibroblasts [1] = assay: Western analysis of signaling pathways activated by CT-1 in cardiac fibroblasts; format: cell-based, rat; conditions: cardiac fibroblasts incubated with CT-1
Experimental: Fibroblasts were isolated from the hearts of 200-250 g adult male Sprague-Dawley rats as previously described (Hao et al., 2000, Am J Physiol Heart Circ Physiol 279: H3020-H3030). Briefly, hearts were subjected to Langendorff perfusion at 37° C. with Joklik's medium containing 0.1% collagenase (Worthington Biochemical Corporation, Lakewood, N.J.) for 20-25 minutes. Collagenase was neutralized by addition of an equal volume of DMEM/F12 medium containing 10% FBS and liberated cells were collected by centrifugation at 500×g for 5 minutes. Cells were resuspended in fresh DMEM/F12 containing 10% FBS and plated on 75 cm^2 culture flasks at 37° C. with 5% CO2 for 3 hours. Non adherent cells (myocytes) were removed by changing the culture media and adherent cells (mainly fibroblasts) were incubated in DMEM/F12 containing 10% FBS, 100 U/mL penicillin, 100 μg/mL streptomycin, and 100 μM ascorbate. Fibroblasts were used for experiments after the second passage and the purity of these cells was ≧95%, using routine phenotyping methods as previously described (Peterson et al., 1999, Cardiovasc Res 41: 575-585). […] Cells were rendered quiescent by incubation in serum-free medium for 24 hours then stimulated with CT-1 for specified times and lysed in RIPA buffer (150 mM NaCl, 1% Triton X-100, 0.5% deoxycholate, 0.1% SDS, 50 mM Tris) with 1× protease inhibitor cocktail (Sigma-Aldrich, Oakville, Ontario) and 10 mM NaF, 1 mM Na3VO4 and 1 mM EGTA.
Protein concentrations of tissue and cell lysates were determined by the BCA method (Smith et al., 1985, Anal Biochem 150: 76-85). Proteins were separated by 8-12% SDS-PAGE and transferred to PVDF membrane (Roche, Indianapolis, Ind.) for 1 hour at 300 mA for small proteins or for 2 hours at 500 mA for proteins greater than 100 kDa. Membranes were blocked with 5% non-fat skim milk in tris-buffered saline containing 0.2% Tween 20 (TBST). […] Band intensity was quantified using a CCD camera imaging densitometer (GS670, Bio-Rad Laboratories (Canada) Ltd. Mississauga, Ontario). […]

cardiac fibroblasts [2] = assay: Immunofluorescence of STAT3 nuclear accumulation; format: cell-based, rat; conditions: CT-1 for 5 minutes
Experimental: Cardiac fibroblasts were seeded onto coverslips in 6 well dishes and allowed to attach overnight in media containing 10% serum. The cells were rendered quiescent in serum free media for 24 hours before being stimulated with CT-1 for specified times. The media was removed, cells were rinsed with PBS and fixed with 4% paraformaldehyde. Cells were permeabilized with 0.1% Triton X-100 and incubated with primary antibodies, biotinylated secondary antibodies, and streptavidin FITC. Nuclei were stained with Hoechst 33342. The cells were visualized with epifluorescent microscopy with appropriate filters (Nikon Canada).

cardiac fibroblasts [3] = assay: Nuclear accumulation of PCNA; format: cell-based, rat; conditions: CT-1 for 24 hours
Experimental: Cardiac fibroblasts were seeded onto cover slips and allowed to attach overnight. The cells were incubated with serum free media for 24 hours prior to stimulation with CT-1 for an additional 24 hours. The cells were then fixed with cold acetone, permeabilized and immunostained for PCNA and counter stained with Hoechst 33342. Images from 5 high power fields per slide were captured and cells were counted. Nuclei that were positive for PCNA were counted and expressed as a ratio to total nuclei.

cardiac fibroblasts [4] = assay: Cell counting (Coulter counter); format: cell-based, rat; conditions: CT-1 for 24 hours
Experimental: To determine absolute cell numbers after stimulation with CT-1, the total number of cells were counted. Equal numbers of cells were loaded into each well of 24 well plates and incubated with CT-1 for 24 hours. The cells were detached with trypsin, diluted in filtered phosphate buffered saline, and counted with Model ZM Coulter cell counter (Beckman Coulter, Fullerton, Calif.).

cardiac fibroblasts [5] = assay: Western analysis of phosphorylation of translational regulatory proteins; format: cell-based, rat; conditions: stimulation with CT-1
Experimental: Protein concentrations of tissue and cell lysates were determined by the BCA method (Smith et al., 1985, Anal Biochem 150: 76-85). Proteins were separated by 8-12% SDS-PAGE and transferred to PVDF membrane (Roche, Indianapolis, Ind.) for 1 hour at 300 mA for small proteins or for 2 hours at 500 mA for proteins greater than 100 kDa. Membranes were blocked with 5% non-fat skim milk in tris-buffered saline containing 0.2% Tween 20 (TBST). Proteins were visualized with ECL Plus (Amersham) after probing with primary and secondary antibodies. Band intensity was quantified using a CCD camera imaging densitometer (GS670, Bio-Rad Laboratories (Canada) Ltd. Mississauga, Ontario).
To determine the effect of CT-1 on protein synthesis in cardiac fibroblasts we measured incorporation of ^3H-labeled leucine. […] Since the activity of translational regulatory proteins is modified by phosphorylation, we used phospho-specific antibodies to determine if CT-1 directly influenced the activity of these regulatory proteins.
We then determined the effect of pharmacologic inhibitors on the activation of this signaling cascade.

cardiac myofibroblasts = assay: Estimation of membrane potential with DiBAC4(3) dye; format: cell-based, rat; conditions: superfusion with CT-1 for 4 minutes
Experimental: Myofibroblast membrane potential was estimated using voltage sensitive DiBAC4(3) dye (Molecular Probes, Eugene, Oreg.). […] First passage myofibroblasts were plated on glass coverslips, allowed to attach, then incubated with 1 μM DiBAC4(3) in control solution containing: NaCl (140 mM), KCl (5 mM), HEPES (10 mM), CaCl2 (2.0 mM), MgCl2 (1.4 mM) and glucose (10 mM) for 20 minutes. The cells were visualized at 400× on an inverted microscope (Nikon Canada). DiBAC4 (3) was excited at 470 nm wavelength and emitted light at 525 nm was digitized and stored (Photon Technology International, Lawrenceville, N.J.). Fluorescence intensity was normalized to maximum fluorescence observed throughout the experiment. To ensure fluorescence intensity changes in response to altered membrane potential were occurring as expected, the cells were superfused with Tyrode's solution containing 1 μM DiBAC4(3) and 1.5 mM KCl or 15 mM KCl. Under these control conditions, DiBAC4(3) fluorescence decreased or increased indicating hyperpolarization or depolarization, respectively. For CT-1 experiments, CT-1 was diluted in control solution containing 1 μM DiBAC4(3). After ensuring a stable fluorescence signal, the cells were superfused with the CT-1 containing solution for 4 minutes, followed by washout. Fluorescence was monitored for a total of 10 minutes.

[6] = system: porcine coronary artery vascular smooth muscle cells; assay: Chemotaxis of vascular smooth muscle cells (data not shown); format: cell-based

B1: cardiotrophin-1 (protein, UniProt Q16619 1-201, looked up)
Cardiotrophin-1: MSRREGSLEDPQTDSSVSLLPHLEAKIRQTHSLAHLLTKYAEQLLQEYVQLQGDPFGLPSFSPPRLPVAGLSAPAPSHAGLPVHERLRLDAAALAALPPLLDAVCRRQAELNPRAPRLLRRLEDAARQARALGAAVEALLAALGAANRGPRAEPPAATASAASATGVFPAKVLGLRVCGLYREWLSRTEGDLGQLLPGGSA
notes: gp130 signaling cytokine of the LIF or IL-6 superfamily; 201 amino acids as a mature protein, 21.5 kDa
B1 was tested, and the “phosphorylation of gp130, Jak1, Jak2, STAT3, STAT1” value (cardiac fibroblasts [1]) was “resulted in phosphorylation”, the “phosphorylation of p42/44 MAPK, p38 MAPK, JNK and Src” value (cardiac fibroblasts [1]) was “observed phosphorylation” and the “Phosphorylation of STAT5 or STAT6” value (cardiac fibroblasts [1]; data not shown) was “not observed”. The “nuclear accumulation of STAT3” value (cardiac fibroblasts [2]) was “nuclear accumulation of STAT3”, the “nuclear expression of PCNA” value (cardiac fibroblasts [3]) was “increased nuclear expression of PCNA” and the total cell number (cardiac fibroblasts [4]) was “increase in total cell number”. The “phosphorylation of Akt T308/S473, p70 S6 kinase T389 and S421/T424, Mnk1, eIF4E, 4E-BP1 and S6 ribosomal protein” value (cardiac fibroblasts [5]) was “induced an increase in phosphorylation”, the “cell membrane potential (DiBAC4(3) fluorescence)” value (cardiac myofibroblasts) was “pronounced hyperpolarization” and the chemotactic effect [6] was “does appear to have a chemotatic effect”.
